Measurements reported in publication PMC8942982, “The role of lysine palmitoylation/myristoylation in the function of the TEAD transcription factors” (Scientific Reports, 2022).

Experiments:
Assay in all cases: SPR; biotinylated-Avitagged Sd proteins immobilized on sensor chips; Yki^30-146 or Vg^263-382 as analyte; carried out as previously described (ref. 28)
Settings in all cases: both partners purified
[1] = target: T1, Scalloped, residues 223-440, Glu352Gln mutant (Glu352Gln^Sd) (Drosophila melanogaster, UniProt P30052 223-440, Glu352Gln, acylated to completion with Myristoyl-Coenzyme A: predominantly on Lys350 (hydroxylamine-insensitive, 90%), the rest on Cys373 (10%); biotin on the Avitag)
T1 construct: Scalloped (Sd), Drosophila homolog of human TEAD, UniProtKB P30052, residues 223-440, with Glu352Gln; Mutation introduced into wt^Sd; source: E. coli, purified in a similar manner to wt^Sd, treated with Myristoyl-Coenzyme A
T1 sequence (looked up): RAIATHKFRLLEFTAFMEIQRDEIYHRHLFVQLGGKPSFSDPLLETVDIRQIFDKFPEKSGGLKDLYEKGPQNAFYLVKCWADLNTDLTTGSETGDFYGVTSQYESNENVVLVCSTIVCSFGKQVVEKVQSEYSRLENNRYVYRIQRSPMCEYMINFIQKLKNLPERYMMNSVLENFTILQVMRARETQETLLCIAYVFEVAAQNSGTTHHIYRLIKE

[2] = target: T2, Scalloped, residues 223-440, Lys350Ala mutant (Lys350Ala^Sd) (Drosophila melanogaster, UniProt P30052 223-440, Lys350Ala, acylated to completion with Myristoyl-Coenzyme A, only on Cys373 (hydroxylamine-sensitive, 100%); biotin on the Avitag)
T2 construct: Scalloped (Sd), Drosophila homolog of human TEAD, UniProtKB P30052, residues 223-440, with Lys350Ala; Mutation introduced into wt^Sd; source: E. coli, purified in a similar manner to wt^Sd, treated with Myristoyl-Coenzyme A
T2 sequence (looked up): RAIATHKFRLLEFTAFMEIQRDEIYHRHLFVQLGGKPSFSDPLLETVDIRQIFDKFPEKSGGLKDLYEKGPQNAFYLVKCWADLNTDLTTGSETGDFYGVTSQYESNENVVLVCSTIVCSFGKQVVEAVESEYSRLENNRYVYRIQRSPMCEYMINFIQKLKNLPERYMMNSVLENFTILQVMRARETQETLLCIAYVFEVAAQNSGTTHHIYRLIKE

[3] = target: T3, Scalloped, residues 223-440, wild type (Sd^223-440) (Drosophila melanogaster, UniProt P30052 223-440, acylated to completion with Myristoyl-Coenzyme A: a mixture acylated on Cys373 (hydroxylamine-sensitive, 47%) or on Lys350 (hydroxylamine-insensitive, 54%); biotin on the Avitag)
T3 construct: Scalloped (Sd), Drosophila homolog of human TEAD, UniProtKB P30052, residues 223-440; also called wt^Sd
T3 sequence (looked up): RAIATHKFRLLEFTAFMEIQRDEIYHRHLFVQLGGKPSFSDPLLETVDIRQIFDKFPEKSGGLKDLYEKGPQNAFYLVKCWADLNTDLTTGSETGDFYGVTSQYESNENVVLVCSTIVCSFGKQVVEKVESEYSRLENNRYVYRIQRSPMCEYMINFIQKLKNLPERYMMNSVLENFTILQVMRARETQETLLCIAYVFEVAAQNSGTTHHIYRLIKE

B1: Yorkie, residues 30-146 (Yki^30-146) (domain or fragment, Drosophila melanogaster, UniProt Q45VV3 30-146, looked up)
chain: SNNLVVRVNQDTDDNLQALFDSVLNPGDAKRPLQLPLRMRKLPNSFFTPPAPSHSRANSADSTYDAGSQSSINIGNKASIVQQPDGQSPIAAIPQLQIQPSPQHSRLAIHHSRARSS
B1 was tested, and the Kd [1] was 4.9 nM, the Kd [2] was 14 nM and the Kd [3] was 9.5 nM.

B2: Vestigial, residues 263-382 (Vg^263-382) (domain or fragment, Drosophila melanogaster, UniProt Q26366 263-382, looked up)
chain: ETPMGSGGGGLAGSGQGQAQYLSASCVVFTNYSGDTASQVDEHFSRALNYNNKDSKESSSPMSNRNFPPSFWNSNYVHPIPAPTHHQVSDLYGTATDTGYATDPWVPHAAHYGSYAHAAH
With B2 the Kd [1] was 0.37 nM, the Kd [2] was 2.3 nM and the Kd [3] was 0.38 nM.
